Experimental data taken from article PMC12005729.
Values belong to the substance of their own block, whether it stands above or below them.

Tests used:
Test in all cases: native gel or EMSA + other: dynamic light scattering; self-assembly into the 24-mer cage; DLS at 25 °C, 1 µM protein in 50 mM Tris-HCl, pH 8, 150 mM NaCl
[1] = target: Fr‐F6 (Fr‐E53F/E56F/E57F/R59F/E60F/E63F), mutant of recombinant horse spleen apo‐L ferritin (horse)
[2] = target: Fr‐F2 (Fr‐E56F/R59F), mutant of recombinant horse spleen apo‐L ferritin (horse)
[3] = target: Fr‐F1 (Fr‐R59F), mutant of recombinant horse spleen apo‐L ferritin (horse)
[4] = target: Fr‐F5/59L (Fr‐E53F/E56F/E57F/R59L/E60F/E63F), mutant of recombinant horse spleen apo‐L ferritin (horse)
[5] = target: Fr‐F5/59A (Fr‐E53F/E56F/E57F/R59A/E60F/E63F), mutant of recombinant horse spleen apo‐L ferritin (horse)
[6] = target: Fr‐F4 (Fr‐R52F/E56F/R59F/E63F), mutant of recombinant horse spleen apo‐L ferritin (horse)

Substance: Fr‐F2 (Fr‐E56F/R59F), mutant of recombinant horse spleen apo‐L ferritin (natural protein)
stoichiometry N [2]: 24

Substance: Fr‐F1 (Fr‐R59F), mutant of recombinant horse spleen apo‐L ferritin (natural protein)
stoichiometry N [3]: 24

Substance: Fr‐F5/59L (Fr‐E53F/E56F/E57F/R59L/E60F/E63F), mutant of recombinant horse spleen apo‐L ferritin (natural protein)
stoichiometry N [4]: 24

The next lines start with the values.

stoichiometry N [1]: 24
Substance: Fr‐F6 (Fr‐E53F/E56F/E57F/R59F/E60F/E63F), mutant of recombinant horse spleen apo‐L ferritin (natural protein)

stoichiometry N [5]: 24
Substance: Fr‐F5/59A (Fr‐E53F/E56F/E57F/R59A/E60F/E63F), mutant of recombinant horse spleen apo‐L ferritin (natural protein)

stoichiometry N [6]: 24
Substance: Fr‐F4 (Fr‐R52F/E56F/R59F/E63F), mutant of recombinant horse spleen apo‐L ferritin (natural protein)
